Experiments:
[1] = target: murine CCL2 (mouse, UniProt P10148 24-148)
[2] = target: T1, murine CCL3 (mouse, UniProt P10855 24-92)
T1 sequence: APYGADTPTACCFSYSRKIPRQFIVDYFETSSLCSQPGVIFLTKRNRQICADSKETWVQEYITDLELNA

[3] = target: T2, human CCL2 (human, UniProt P13500 24-99); assay: SPR, R17 on CM5 chip
T2 construct: also called hCCL2

[4] = target: T3, human CCL3 (human, UniProt P10147 23-92); assay: SPR, R17 on CM5 chip
T3 construct: also called hCCL3
T3 sequence: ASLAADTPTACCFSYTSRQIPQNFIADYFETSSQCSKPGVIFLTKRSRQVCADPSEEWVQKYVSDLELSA

[5] = target: T4, murine CCL24 (mouse, UniProt Q9JKC0 27-119); assay: SPR, R17 on CM5 chip
T4 construct: also called mCCL24
T4 sequence: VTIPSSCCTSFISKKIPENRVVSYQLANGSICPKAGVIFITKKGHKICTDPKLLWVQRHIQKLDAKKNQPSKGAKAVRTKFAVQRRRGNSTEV

[6] = target: T5, murine CCL21 (mouse, UniProt P84444 24-133); assay: SPR, R17 on CM5 chip
T5 construct: also called mCCL21
T5 sequence: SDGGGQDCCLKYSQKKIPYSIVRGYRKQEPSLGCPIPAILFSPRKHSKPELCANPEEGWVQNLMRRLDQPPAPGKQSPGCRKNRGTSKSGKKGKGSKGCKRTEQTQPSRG

[7] = target: T6, murine CXCL10 (mouse, UniProt P17515 22-98); assay: SPR, R17 on CM5 chip
T6 construct: also called mCXCL10
T6 sequence: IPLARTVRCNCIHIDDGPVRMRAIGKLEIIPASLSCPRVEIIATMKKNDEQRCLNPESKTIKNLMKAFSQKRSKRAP

[8] = target: T7, murine CXCL9 (mouse, UniProt P18340 22-126); assay: SPR, R17 on CM5 chip
T7 construct: also called mCXCL9
T7 sequence: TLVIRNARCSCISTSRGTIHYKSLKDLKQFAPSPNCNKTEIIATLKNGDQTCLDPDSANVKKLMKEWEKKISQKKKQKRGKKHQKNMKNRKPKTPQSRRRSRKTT

[9] = target: T8, murine CXCL2 (mouse, UniProt P10889 28-100); assay: SPR, R17 on CM5 chip
T8 construct: also called mCXCL2
T8 sequence: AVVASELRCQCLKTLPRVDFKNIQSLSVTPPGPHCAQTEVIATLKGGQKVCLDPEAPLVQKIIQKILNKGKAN

[10] = target: T9, murine CXCL12 (mouse, UniProt P40224 22-89); assay: SPR, R17 on CM5 chip
T9 construct: also called mCXCL12

[11] = target: T10, murine IL-13 (mouse, UniProt P20109 21-131); assay: SPR, R17 on CM5 chip
T10 construct: also called mIL-13
T10 sequence: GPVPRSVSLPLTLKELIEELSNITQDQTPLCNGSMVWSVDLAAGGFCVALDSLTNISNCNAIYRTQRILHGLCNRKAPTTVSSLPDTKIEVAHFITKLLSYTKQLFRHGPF

[12] = target: T11, murine IL-12 (mouse, UniProt P43431 23-215; P43432 23-335); assay: SPR, R17 on CM5 chip
T11 construct: also called mIL-12
T11 sequence 1: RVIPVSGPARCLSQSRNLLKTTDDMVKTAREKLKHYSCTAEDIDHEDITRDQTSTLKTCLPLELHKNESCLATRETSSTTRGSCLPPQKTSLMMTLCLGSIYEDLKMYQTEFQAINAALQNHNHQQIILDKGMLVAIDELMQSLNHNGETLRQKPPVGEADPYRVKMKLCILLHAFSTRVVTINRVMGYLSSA
T11 sequence 2: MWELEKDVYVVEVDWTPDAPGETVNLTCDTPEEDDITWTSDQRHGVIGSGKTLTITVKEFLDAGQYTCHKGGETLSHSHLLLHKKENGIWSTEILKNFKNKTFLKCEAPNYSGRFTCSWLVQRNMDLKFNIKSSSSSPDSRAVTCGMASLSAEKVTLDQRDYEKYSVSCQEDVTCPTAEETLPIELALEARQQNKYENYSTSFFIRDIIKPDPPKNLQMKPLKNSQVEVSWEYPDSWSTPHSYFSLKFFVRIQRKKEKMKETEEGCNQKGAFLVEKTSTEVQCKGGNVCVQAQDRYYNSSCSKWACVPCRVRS

[13] = target: T12, murine IL-6 (mouse, UniProt P08505 25-211); assay: SPR, R17 on CM5 chip
T12 construct: also called mIL-6
T12 sequence: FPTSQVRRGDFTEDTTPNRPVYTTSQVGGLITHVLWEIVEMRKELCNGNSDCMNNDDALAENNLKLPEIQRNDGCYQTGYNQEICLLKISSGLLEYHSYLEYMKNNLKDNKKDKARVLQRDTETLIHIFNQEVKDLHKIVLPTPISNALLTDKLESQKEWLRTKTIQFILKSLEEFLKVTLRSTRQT

[14] = target: T13, murine IL-17 (mouse, UniProt Q62386 26-158); assay: SPR, R17 on CM5 chip
T13 construct: also called mIL-17
T13 sequence: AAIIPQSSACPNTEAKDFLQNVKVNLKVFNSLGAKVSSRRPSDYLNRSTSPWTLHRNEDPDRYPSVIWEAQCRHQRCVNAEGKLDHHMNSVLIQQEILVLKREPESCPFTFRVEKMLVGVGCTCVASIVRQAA

[15] = target: T14, murine TNF-alpha (mouse, UniProt P06804 80-235); assay: SPR, R17 on CM5 chip
T14 construct: also called mTNF-alpha; TNF-α
T14 sequence: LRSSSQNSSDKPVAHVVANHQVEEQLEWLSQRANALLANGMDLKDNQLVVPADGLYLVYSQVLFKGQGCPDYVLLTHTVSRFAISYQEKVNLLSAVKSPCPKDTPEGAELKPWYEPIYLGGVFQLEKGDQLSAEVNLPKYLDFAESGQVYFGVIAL

[16] = target: T2, human CCL2; assay: SPR saturation binding (KD,eq), R17 on CM5 chip
[17] = target: T3, human CCL3; assay: SPR saturation binding (KD,eq), R17 on CM5 chip
[18] = target: CCL2 (species not given); assay: SPR, R17 variant on CM5 chip; column KDeq (nM)
[19] = target: CCL2 (species not given); assay: SPR, R17 variant on CM5 chip; column KD (nM), kinetic

T2 sequence (P13500 24-99 limits assumed): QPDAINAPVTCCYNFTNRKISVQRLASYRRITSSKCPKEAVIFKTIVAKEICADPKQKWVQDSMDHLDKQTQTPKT
T9 sequence (P40224 22-89 limits assumed): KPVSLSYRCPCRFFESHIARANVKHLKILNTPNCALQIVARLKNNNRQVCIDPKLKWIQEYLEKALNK
Chain of murine CCL2 (P10148 24-148 limits assumed): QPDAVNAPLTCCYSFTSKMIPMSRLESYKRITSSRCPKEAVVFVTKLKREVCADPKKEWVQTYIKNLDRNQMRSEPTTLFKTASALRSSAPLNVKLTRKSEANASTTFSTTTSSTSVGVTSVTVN

B1: R17 chemokine decoy receptor of Rodent herpesvirus Peru (RHVP), wild type, C-terminal 8-His fusion (receptor)
chain: GPVGEPVASEINEASKVSSRLLTQDILFRKDRQATISLPIKLPVEDIITQTCDKITYGPLKFLDLLEKETAVLPLSTDITCPACLGRAVLVGKWECPAHVAVNESDLTVFGPNKEEHVPQFVTVQQPSDGKMQRLFFAKFLGTEESLAVLRVPGPDGHLCIQEALIHFKELSGAGVCSLWKANDSREEGLEMKQVDCLETTVLENQTCIATTLSKKIYHRLYCGERLMTGGQVSTRVLLTALGFYKRQPYTFHRVPKGMVYVHLIDSGSEDYMEYSECEEVTPGRYEDKQISYTFYTDLFQTADGEPVLASVWGTSGLKDSAYESCAFVIPTKGRRKLVPRRIMSKCYPFRLTYHPSTMTVRLDVRVEKHHGATDQGFVFLKMESGTYSEGREYYLDRVLWGEDSSTNNVLQ
notes: not shown: C-terminal 8-His tag
[1]
  Kd: 12 nM
[2]
  Kd: 1.4 nM
[3]
  complex half-life (t1/2): 0.035 min
[4]
  apparent complex half-life (t1/2,app): > 16.7 min
[5]
  complex half-life: > 10 min
[6]
  binding result: no binding
[7]
  binding result: no binding
[8]
  binding result: no binding
[9]
  binding result: no binding
[10]
  binding result: no binding
[11]
  binding result: no binding
[12]
  binding result: no binding
[13]
  binding result: no binding
[14]
  binding result: no binding
[15]
  binding result: no binding
[16]
  Kd: 12 nM
[17]
  Kd: 1.4 nM
[18]
  Kd: 10 nM
[19]
  Kd: 6.7 nM
